# Data as given in patent US20240270840A1 (NECTIN THERAPEUTICS, published 2024).
# Where a chain is given by its changes, count along the chain named. Names may count otherwise.
# T1: Human CD112R (PVRIG) (human, UniProt Q6DKI7 41-171, limits assumed)
# T1 sequence (looked up): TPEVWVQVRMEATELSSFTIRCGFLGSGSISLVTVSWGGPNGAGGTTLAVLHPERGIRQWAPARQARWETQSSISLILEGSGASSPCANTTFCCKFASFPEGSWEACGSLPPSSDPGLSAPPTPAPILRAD
# B1: VH0 N28A Vk0 (antibody, human IgG1, V domains shown)
# VH: QVQLQQPGAELVKPGTSVKLSCKASGYAFTSYWINWVKLRPGQGLEWIGDIYPGSYIPNYNEKFKNKATLTVDTSSSTAYMQLTSLASEDSALYYCAGGYFDVWGAGTTVTVSS
# VL: DIVMTQSPSSLSVSAGEKVTMSCKSSQSLLSSGNQKNYLAWYQQKPGQPPKLLIYGASTRESGVPDRFTGSGSGTDFTLTISSVQAEDLAVYYCQNDHSYPYTFGGGTKLEIK
# notes: Variant of VH0K0
# B2: VH0 N28D Vk0 (antibody, human IgG1, V domains shown)
# VH: B1 VH with A28D
# VL: B1 VL
# notes: Variant of VH0K0 without the N-linked glycosylation motif of heavy chain CDR1
# B3: VH0 N28Q Vk0 (antibody, human IgG1, V domains shown)
# VH: B1 VH with A28Q
# VL: B1 VL
# notes: Variant of VH0K0
# B4: VH0 N28S Vk0 (antibody, human IgG1, V domains shown)
# VH: B1 VH with A28S
# VL: B1 VL
# notes: Variant of VH0K0
# B5: VH0 N28T Vk0 (antibody, V domains shown)
# VH: B1 VH with A28T
# VL: B1 VL
# notes: Variant of VH0K0; also called VH0K0 N28T
# B6: VH0 T30A Vk0 (antibody, human IgG1, V domains shown)
# VH: B1 VH with A28N, T30A
# VL: B1 VL
# notes: Variant of VH0K0
# B7: VH0K1 N28T (antibody, V domains shown)
# VH: B1 VH with A28T
# VL: B1 VL with S9D, A15L, K18R, V19A, M21I, S22N, V84L, L89V, G106Q
# B8: VH0K2 N28T (antibody, V domains shown)
# VH: B1 VH with A28T
# VL: B1 VL with S9D, S12A, A15L, K18R, V19A, M21I, S22N, V84L, L89V, G106Q
# B9: VH0K3 N28T (antibody, V domains shown)
# VH: B1 VH with A28T
# VL: DIVMTQSPDSLAVSLGERATINCKSSQSLLSSGNQKNYLAWYQQKPGQPPKLLIYGASTRESGVPDRFSGSGSGTDFTLTISSLQAEDVAVYYCQNDHSYPYTFGQGTKLEIK
# B10: VH11K2 as tested in Table 4 (humanized scFv variant) (scFv, V domains shown)
# VH: QVQLVQSGAEVKKPGSSVKVSCKASGYTFTSYWINWVRQAPGQGLEWIGDIYPGSYIPNYNEKFKNRATLTVDTSASTAYMELSSLRSEDTAVYYCAGGYFDVWGQGTTVTVSS
# VL: B9 VL with S69T
# notes: Format as for m33
# B11: VH9K0 (antibody, V domains shown)
# VH: B10 VH with R38K, Q39L
# VL: B1 VL
# B12: VH9K1 (antibody, V domains shown)
# VH: B10 VH with R38K, Q39L
# VL: B9 VL with A12S, S69T
# B13: VH9K2 (antibody, V domains shown)
# VH: B10 VH with R38K, Q39L
# VL: B9 VL with S69T
# B14: VH9K3 (antibody, V domains shown)
# VH: B10 VH with R38K, Q39L
# VL: B9 VL
# B15: VH10K0 (antibody, V domains shown)
# VH: B10 VH with R87A, V93L
# VL: B1 VL
# B16: VH10K1 (antibody, V domains shown)
# VH: B10 VH with R87A, V93L
# VL: B9 VL with A12S, S69T
# B17: VH10K2 as tested in Table 4 (humanized scFv variant) (scFv, V domains shown)
# VH: B10 VH with R87A, V93L
# VL: B9 VL with S69T
# B18: VH10K3 as tested in Table 4 (humanized scFv variant) (scFv, V domains shown)
# VH: B10 VH with R87A, V93L
# VL: B9 VL
# notes: Format as for m33
# B19: VH11K0 (antibody, V domains shown)
# VH: B10 VH
# VL: B1 VL
# B20: VH11K1 as tested in Table 4 (humanized scFv variant) (scFv, V domains shown)
# VH: B10 VH
# VL: B9 VL with A12S, S69T
# notes: Format as for m33
# B21: VH11K3 as tested in Table 4 (humanized scFv variant) (scFv, V domains shown)
# VH: B10 VH
# VL: B9 VL
# notes: Format as for m33
# B22: VH0K0 as tested in Table 4 (scFv of VH0K0) (scFv, V domains shown)
# VH: B1 VH with A28N
# VL: B1 VL
# Experiments:
# Human CD112R (PVRIG) [1] = molecular target: T1, Human CD112R (PVRIG); assay: affinity of glycosylation-motif variants (Table 2; method not named there)
# Human CD112R (PVRIG) [2] = molecular target: T1, Human CD112R (PVRIG); assay: SPR (Biacore); purified full antibody
# Human CD112R (PVRIG) [3] = molecular target: T1, Human CD112R (PVRIG); assay: SPR (Biacore); purified full antibody; * limit of the Biacore instrument sensitivity
# Human CD112R (PVRIG) [4] = molecular target: T1, Human CD112R (PVRIG); assay: binding kinetics to human CD112R (Table 4; scFv variants by paragraph 288)
binder,measurement,setting,value
B1,Kd,Human CD112R (PVRIG) [1],0.15 nM
same,Relative Kd (against VH0Vk0),Human CD112R (PVRIG) [1],0.9
B2,Kd,Human CD112R (PVRIG) [1],0.122 nM
same,Relative Kd (against VH0Vk0),Human CD112R (PVRIG) [1],0.73
B3,Kd,Human CD112R (PVRIG) [1],0.116 nM
same,Relative Kd (against VH0Vk0),Human CD112R (PVRIG) [1],0.69
B4,Kd,Human CD112R (PVRIG) [1],0.116 nM
same,Relative Kd (against VH0Vk0),Human CD112R (PVRIG) [1],0.66
B5,Kd,Human CD112R (PVRIG) [2],0.126 nM
same,Relative Kd (against VH0K0 N28T),Human CD112R (PVRIG) [2],1
same,koff,Human CD112R (PVRIG) [2],5.02e-05 s⁻¹
same,kon,Human CD112R (PVRIG) [2],400000 M⁻¹ s⁻¹
same,Kd,Human CD112R (PVRIG) [1],0.102 nM
same,Relative Kd (against VH0Vk0),Human CD112R (PVRIG) [1],0.61
B6,Kd,Human CD112R (PVRIG) [1],0.106 nM
same,Relative Kd (against VH0Vk0),Human CD112R (PVRIG) [1],0.63
B7,Kd,Human CD112R (PVRIG) [3],0.0259 nM
same,Relative Kd (against VH0K0 N28T),Human CD112R (PVRIG) [3],0.21
same,koff,Human CD112R (PVRIG) [3],8.3e-06 s⁻¹
same,kon,Human CD112R (PVRIG) [3],320000 M⁻¹ s⁻¹
B8,Kd,Human CD112R (PVRIG) [2],0.109 nM
same,Relative Kd (against VH0K0 N28T),Human CD112R (PVRIG) [2],0.87
same,koff,Human CD112R (PVRIG) [2],4.34e-05 s⁻¹
same,kon,Human CD112R (PVRIG) [2],398000 M⁻¹ s⁻¹
B9,Kd,Human CD112R (PVRIG) [3],0.0321 nM
same,Relative Kd (against VH0K0 N28T),Human CD112R (PVRIG) [3],0.25
same,koff,Human CD112R (PVRIG) [3],1.06e-05 s⁻¹
same,kon,Human CD112R (PVRIG) [3],330000 M⁻¹ s⁻¹
B10,Kd,Human CD112R (PVRIG) [4],0.191 nM
same,Relative Kd (against VH0K0),Human CD112R (PVRIG) [4],0.62
same,koff,Human CD112R (PVRIG) [4],0.000105 s⁻¹
same,kon,Human CD112R (PVRIG) [4],552000 M⁻¹ s⁻¹
B11,Kd,Human CD112R (PVRIG) [3],0.0103 nM
same,Relative Kd (against VH0K0 N28T),Human CD112R (PVRIG) [3],0.08
same,koff,Human CD112R (PVRIG) [3],3.09e-06 s⁻¹
same,kon,Human CD112R (PVRIG) [3],300000 M⁻¹ s⁻¹
B12,Kd,Human CD112R (PVRIG) [2],0.111 nM
same,Relative Kd (against VH0K0 N28T),Human CD112R (PVRIG) [2],0.87
same,koff,Human CD112R (PVRIG) [2],3.87e-05 s⁻¹
same,kon,Human CD112R (PVRIG) [2],350000 M⁻¹ s⁻¹
B13,Kd,Human CD112R (PVRIG) [3],0.0432 nM
same,Relative Kd (against VH0K0 N28T),Human CD112R (PVRIG) [3],0.34
same,koff,Human CD112R (PVRIG) [3],1.3e-05 s⁻¹
same,kon,Human CD112R (PVRIG) [3],301000 M⁻¹ s⁻¹
B14,Kd,Human CD112R (PVRIG) [2],~0.154 nM
same,Relative Kd (against VH0K0 N28T),Human CD112R (PVRIG) [2],1.22
same,koff,Human CD112R (PVRIG) [2],1.06e-05 s⁻¹
same,kon,Human CD112R (PVRIG) [2],330000 M⁻¹ s⁻¹
B15,Kd,Human CD112R (PVRIG) [2],0.135 nM
same,Relative Kd (against VH0K0 N28T),Human CD112R (PVRIG) [2],1.07
same,koff,Human CD112R (PVRIG) [2],4.66e-05 s⁻¹
same,kon,Human CD112R (PVRIG) [2],345000 M⁻¹ s⁻¹
B16,Kd,Human CD112R (PVRIG) [2],0.119 nM
same,Relative Kd (against VH0K0 N28T),Human CD112R (PVRIG) [2],0.94
same,koff,Human CD112R (PVRIG) [2],4.18e-05 s⁻¹
same,kon,Human CD112R (PVRIG) [2],351000 M⁻¹ s⁻¹
B17,Kd,Human CD112R (PVRIG) [4],0.214 nM
same,Relative Kd (against VH0K0),Human CD112R (PVRIG) [4],0.7
same,koff,Human CD112R (PVRIG) [4],0.000133 s⁻¹
same,kon,Human CD112R (PVRIG) [4],623000 M⁻¹ s⁻¹
B18,Kd,Human CD112R (PVRIG) [4],0.197 nM
same,Relative Kd (against VH0K0),Human CD112R (PVRIG) [4],0.64
same,koff,Human CD112R (PVRIG) [4],0.000107 s⁻¹
same,kon,Human CD112R (PVRIG) [4],545000 M⁻¹ s⁻¹
B19,Kd,Human CD112R (PVRIG) [2],0.101 nM
same,Relative Kd (against VH0K0 N28T),Human CD112R (PVRIG) [2],0.8
same,koff,Human CD112R (PVRIG) [2],3.19e-05 s⁻¹
same,kon,Human CD112R (PVRIG) [2],316000 M⁻¹ s⁻¹
B20,Kd,Human CD112R (PVRIG) [4],0.165 nM
same,Relative Kd (against VH0K0),Human CD112R (PVRIG) [4],0.54
same,koff,Human CD112R (PVRIG) [4],0.000101 s⁻¹
same,kon,Human CD112R (PVRIG) [4],630000 M⁻¹ s⁻¹
B21,Kd,Human CD112R (PVRIG) [4],0.19 nM
same,Relative Kd (against VH0K0),Human CD112R (PVRIG) [4],0.62
same,koff,Human CD112R (PVRIG) [4],0.000101 s⁻¹
same,kon,Human CD112R (PVRIG) [4],530000 M⁻¹ s⁻¹
B22,Kd,Human CD112R (PVRIG) [4],0.307 nM
same,Relative Kd (against VH0K0),Human CD112R (PVRIG) [4],1
same,koff,Human CD112R (PVRIG) [4],8.89e-05 s⁻¹
same,kon,Human CD112R (PVRIG) [4],290000 M⁻¹ s⁻¹
